Measured values taken from patent US20220010021A1 (Sanofi, published 2022).

Key:
human beta-Klotho (KLB) = biological target: T1, human beta-Klotho (KLB) (human, UniProt Q86Z14 53-997); test: BLI off-rate screen (Octet), Ab captured via Fc;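 also: antibody supernatants applied at 25 µg/mL, dissociation monitored over 1800 s in D-PBS with 0.1% BSA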
T1 construct: also called human KLB
T1 sequence (looked up): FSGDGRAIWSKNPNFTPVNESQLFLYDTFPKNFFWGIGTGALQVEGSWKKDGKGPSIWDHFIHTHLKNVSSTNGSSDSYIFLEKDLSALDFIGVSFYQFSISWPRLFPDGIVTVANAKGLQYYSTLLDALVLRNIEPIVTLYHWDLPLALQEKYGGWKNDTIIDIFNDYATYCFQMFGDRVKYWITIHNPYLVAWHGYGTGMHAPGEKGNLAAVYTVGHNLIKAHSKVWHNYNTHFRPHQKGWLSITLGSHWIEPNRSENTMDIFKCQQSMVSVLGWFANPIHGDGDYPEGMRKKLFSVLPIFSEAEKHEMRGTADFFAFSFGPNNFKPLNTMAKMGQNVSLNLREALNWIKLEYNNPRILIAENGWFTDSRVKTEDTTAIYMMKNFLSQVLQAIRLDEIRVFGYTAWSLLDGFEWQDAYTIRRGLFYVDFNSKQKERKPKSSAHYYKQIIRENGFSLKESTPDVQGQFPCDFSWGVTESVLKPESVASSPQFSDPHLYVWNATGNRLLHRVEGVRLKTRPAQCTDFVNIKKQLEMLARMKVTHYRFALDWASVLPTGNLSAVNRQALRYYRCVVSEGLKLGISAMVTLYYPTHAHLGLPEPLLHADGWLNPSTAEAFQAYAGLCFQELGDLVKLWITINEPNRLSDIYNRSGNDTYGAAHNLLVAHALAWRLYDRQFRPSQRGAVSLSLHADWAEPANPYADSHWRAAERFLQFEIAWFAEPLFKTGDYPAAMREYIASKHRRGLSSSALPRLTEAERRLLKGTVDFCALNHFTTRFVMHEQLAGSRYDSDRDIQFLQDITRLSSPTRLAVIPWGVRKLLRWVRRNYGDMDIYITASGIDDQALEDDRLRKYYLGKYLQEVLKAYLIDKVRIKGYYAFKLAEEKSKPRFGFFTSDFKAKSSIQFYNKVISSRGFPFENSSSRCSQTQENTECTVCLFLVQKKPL

[1] = biological target: human FGFR1c/KLB cell surface receptor complex on iLite FGF21 reporter cells (human, UniProt P11362 22-822; Q86Z14 1-1044); test: cell-based or functional assay; as to Mean E max (%): reference of the scale not given here
human FGFR1c/KLB cell surface receptor complex on iLite FGF21 reporter cells, sequence (P11362 22-822, chain 1 of 2): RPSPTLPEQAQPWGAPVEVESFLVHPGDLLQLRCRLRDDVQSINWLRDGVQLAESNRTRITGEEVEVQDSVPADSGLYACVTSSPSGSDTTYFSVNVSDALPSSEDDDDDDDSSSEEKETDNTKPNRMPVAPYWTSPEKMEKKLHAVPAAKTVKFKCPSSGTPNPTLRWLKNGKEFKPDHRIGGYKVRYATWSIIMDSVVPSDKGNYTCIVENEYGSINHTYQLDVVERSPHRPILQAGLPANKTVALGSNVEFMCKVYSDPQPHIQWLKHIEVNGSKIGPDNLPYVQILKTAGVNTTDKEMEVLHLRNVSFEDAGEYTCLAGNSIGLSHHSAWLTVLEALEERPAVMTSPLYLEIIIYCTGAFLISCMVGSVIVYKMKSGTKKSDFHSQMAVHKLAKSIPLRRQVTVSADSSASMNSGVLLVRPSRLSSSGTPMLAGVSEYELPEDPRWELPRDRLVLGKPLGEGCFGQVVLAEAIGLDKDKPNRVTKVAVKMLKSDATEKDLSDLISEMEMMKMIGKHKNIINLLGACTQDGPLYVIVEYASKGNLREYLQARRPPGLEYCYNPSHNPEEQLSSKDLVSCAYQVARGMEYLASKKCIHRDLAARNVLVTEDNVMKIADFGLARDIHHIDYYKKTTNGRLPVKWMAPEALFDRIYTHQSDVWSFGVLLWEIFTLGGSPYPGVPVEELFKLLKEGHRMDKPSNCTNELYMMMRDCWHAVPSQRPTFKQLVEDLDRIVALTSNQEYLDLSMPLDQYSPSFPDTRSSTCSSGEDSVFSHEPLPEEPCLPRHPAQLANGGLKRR
human FGFR1c/KLB cell surface receptor complex on iLite FGF21 reporter cells, sequence (Q86Z14 whole entry, chain 2 of 2): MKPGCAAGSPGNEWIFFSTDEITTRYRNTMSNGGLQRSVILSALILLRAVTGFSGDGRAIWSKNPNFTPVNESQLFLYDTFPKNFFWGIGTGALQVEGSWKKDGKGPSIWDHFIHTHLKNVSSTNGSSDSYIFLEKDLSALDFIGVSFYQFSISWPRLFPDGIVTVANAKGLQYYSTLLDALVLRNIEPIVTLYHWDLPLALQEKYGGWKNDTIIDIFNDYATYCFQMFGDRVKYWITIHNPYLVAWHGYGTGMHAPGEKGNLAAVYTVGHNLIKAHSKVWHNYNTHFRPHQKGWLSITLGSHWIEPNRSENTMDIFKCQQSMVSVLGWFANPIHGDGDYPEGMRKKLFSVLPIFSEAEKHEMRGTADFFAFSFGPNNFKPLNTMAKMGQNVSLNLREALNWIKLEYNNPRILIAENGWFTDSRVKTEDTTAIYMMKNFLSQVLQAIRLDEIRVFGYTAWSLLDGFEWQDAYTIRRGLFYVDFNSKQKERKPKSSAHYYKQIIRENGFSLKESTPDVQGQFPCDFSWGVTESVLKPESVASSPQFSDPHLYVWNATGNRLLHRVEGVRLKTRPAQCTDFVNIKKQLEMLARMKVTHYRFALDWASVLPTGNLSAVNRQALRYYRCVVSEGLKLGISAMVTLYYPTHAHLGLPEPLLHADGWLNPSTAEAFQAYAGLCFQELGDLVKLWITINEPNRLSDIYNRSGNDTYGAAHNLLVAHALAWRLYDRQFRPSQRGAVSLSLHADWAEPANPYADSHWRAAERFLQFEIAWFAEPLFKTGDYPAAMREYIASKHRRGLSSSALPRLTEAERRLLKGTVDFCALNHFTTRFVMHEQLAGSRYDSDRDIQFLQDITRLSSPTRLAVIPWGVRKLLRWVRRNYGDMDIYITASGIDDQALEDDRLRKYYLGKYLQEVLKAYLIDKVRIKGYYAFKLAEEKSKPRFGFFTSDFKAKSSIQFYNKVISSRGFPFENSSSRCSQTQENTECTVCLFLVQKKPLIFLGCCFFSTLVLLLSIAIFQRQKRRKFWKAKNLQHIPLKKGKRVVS

B1: 16H7 variant, light chain R53K (antibody, human IgG4 S228P, lambda, V domains shown)
VH: not shown
VL: SYVLTQPPSVSVAPGQTARITCGGNNIGSESVHWYQQKPGQAPVLVVYDDSDKPSGIPERFSGSNSGNTATLTISRVEAGDEADYYCQVWDGNSDHVVFGGGTKLTVLG
notes: IgG4 backbone
- koff (human beta-Klotho (KLB)): 4e-05 s⁻¹
- Mean E max (%) [1]: 98%
- Mean EC50 [1]: 0.114 nM

B2: 16H7 variant, light chain R53L (antibody, human IgG4 S228P, lambda, V domains shown)
VH: not shown
VL: SYVLTQPPSVSVAPGQTARITCGGNNIGSESVHWYQQKPGQAPVLVVYDDSDLPSGIPERFSGSNSGNTATLTISRVEAGDEADYYCQVWDGNSDHVVFGGGTKLTVLG
notes: IgG4 backbone
- koff (human beta-Klotho (KLB)): 2e-05 s⁻¹
- Mean E max (%) [1]: 106%
- Mean EC50 [1]: 0.151 nM

B3: 16H7 variant, light chain R53M (antibody, human IgG4 S228P, lambda, V domains shown)
VH: not shown
VL: SYVLTQPPSVSVAPGQTARITCGGNNIGSESVHWYQQKPGQAPVLVVYDDSDMPSGIPERFSGSNSGNTATLTISRVEAGDEADYYCQVWDGNSDHVVFGGGTKLTVLG
notes: IgG4 backbone
- koff (human beta-Klotho (KLB)): 0.00018 s⁻¹
- Mean E max (%) [1]: 95%
- Mean EC50 [1]: 0.099 nM

B4: 16H7 variant, light chain R53P (antibody, human IgG4 S228P, lambda, V domains shown)
VH: not shown
VL: SYVLTQPPSVSVAPGQTARITCGGNNIGSESVHWYQQKPGQAPVLVVYDDSDPPSGIPERFSGSNSGNTATLTISRVEAGDEADYYCQVWDGNSDHVVFGGGTKLTVLG
notes: IgG4 backbone
- koff (human beta-Klotho (KLB)): 0.00028 s⁻¹
- Mean E max (%) [1]: 92%
- Mean EC50 [1]: 0.126 nM

B5: 16H7 variant, light chain R53Q (antibody, human IgG4 S228P, lambda, V domains shown)
VH: not shown
VL: SYVLTQPPSVSVAPGQTARITCGGNNIGSESVHWYQQKPGQAPVLVVYDDSDQPSGIPERFSGSNSGNTATLTISRVEAGDEADYYCQVWDGNSDHVVFGGGTKLTVLG
notes: IgG4 backbone
- koff (human beta-Klotho (KLB)): 0.00024 s⁻¹
- Mean E max (%) [1]: 100%
- Mean EC50 [1]: 0.131 nM

B6: 16H7 variant, light chain R53S (antibody, human IgG4 S228P, lambda, V domains shown)
VH: not shown
VL: SYVLTQPPSVSVAPGQTARITCGGNNIGSESVHWYQQKPGQAPVLVVYDDSDSPSGIPERFSGSNSGNTATLTISRVEAGDEADYYCQVWDGNSDHVVFGGGTKLTVLG
notes: IgG4 backbone
- koff (human beta-Klotho (KLB)): 0.00029 s⁻¹
- Mean E max (%) [1]: 105%
- Mean EC50 [1]: 0.113 nM

B7: 16H7 variant, light chain R53T (antibody, human IgG4 S228P, lambda, V domains shown)
VH: not shown
VL: SYVLTQPPSVSVAPGQTARITCGGNNIGSESVHWYQQKPGQAPVLVVYDDSDTPSGIPERFSGSNSGNTATLTISRVEAGDEADYYCQVWDGNSDHVVFGGGTKLTVLG
notes: IgG4 backbone
- koff (human beta-Klotho (KLB)): 8.7e-05 s⁻¹
- Mean E max (%) [1]: 109%
- Mean EC50 [1]: 0.134 nM

B8: 16H7 variant, light chain S51G (antibody, human IgG4 S228P, lambda, V domains shown)
VH: not shown
VL: SYVLTQPPSVSVAPGQTARITCGGNNIGSESVHWYQQKPGQAPVLVVYDDGDRPSGIPERFSGSNSGNTATLTISRVEAGDEADYYCQVWDGNSDHVVFGGGTKLTVLG
notes: IgG4 backbone
- koff (human beta-Klotho (KLB)): 0.0001 s⁻¹
- Mean E max (%) [1]: 104%
- Mean EC50 [1]: 0.129 nM

B9: 16H7 variant, light chain S55C (antibody, human IgG4 S228P, lambda, V domains shown)
VH: not shown
VL: SYVLTQPPSVSVAPGQTARITCGGNNIGSESVHWYQQKPGQAPVLVVYDDSDRPCGIPERFSGSNSGNTATLTISRVEAGDEADYYCQVWDGNSDHVVFGGGTKLTVLG
notes: IgG4 backbone
- koff (human beta-Klotho (KLB)): 6.3e-05 s⁻¹
- Mean E max (%) [1]: 91%
- Mean EC50 [1]: 0.244 nM

B10: 16H7 variant, light chain S55D (antibody, human IgG4 S228P, lambda, V domains shown)
VH: not shown
VL: SYVLTQPPSVSVAPGQTARITCGGNNIGSESVHWYQQKPGQAPVLVVYDDSDRPDGIPERFSGSNSGNTATLTISRVEAGDEADYYCQVWDGNSDHVVFGGGTKLTVLG
notes: IgG4 backbone
- koff (human beta-Klotho (KLB)): 3.6e-05 s⁻¹
- Mean E max (%) [1]: 109%
- Mean EC50 [1]: 0.146 nM

B11: 16H7 variant, light chain S55E (antibody, IgG4, V domains shown)
VH: not shown
VL: SYVLTQPPSVSVAPGQTARITCGGNNIGSESVHWYQQKPGQAPVLVVYDDSDRPEGIPERFSGSNSGNTATLTISRVEAGDEADYYCQVWDGNSDHVVFGGGTKLTVLG
notes: IgG4 backbone; copies: 2 + 2
- koff (human beta-Klotho (KLB)): 3.8e-05 s⁻¹
- Mean E max (%) [1]: 106%
- Mean EC50 [1]: 0.141 nM

B12: 16H7 variant, light chain S55F (antibody, IgG4, V domains shown)
VH: not shown
VL: SYVLTQPPSVSVAPGQTARITCGGNNIGSESVHWYQQKPGQAPVLVVYDDSDRPFGIPERFSGSNSGNTATLTISRVEAGDEADYYCQVWDGNSDHVVFGGGTKLTVLG
notes: IgG4 backbone; copies: 2 + 2
- koff (human beta-Klotho (KLB)): 2.4e-05 s⁻¹
- Mean E max (%) [1]: 97%
- Mean EC50 [1]: 0.095 nM
